Patent US20180051085A1 (published 2018)

Tests used:
[1] = biological target: T1, recombinant human PD-1-His (human, UniProt Q15116 25-167, limits assumed); test: binding to recombinant human PD-1-His (FIG. 8)
T1 construct: also called recombinant PD-1-His; not shown: His tag

[2] = biological target: T2, human PD-1 expressed on cells (human, UniProt Q15116 25-288); test: binding to 2D1 cells transfected with human PD-1 (FIG. 9)
T2 construct: whole, on cells; also called SpESFX-2D1
T2 sequence (Q15116 25-288): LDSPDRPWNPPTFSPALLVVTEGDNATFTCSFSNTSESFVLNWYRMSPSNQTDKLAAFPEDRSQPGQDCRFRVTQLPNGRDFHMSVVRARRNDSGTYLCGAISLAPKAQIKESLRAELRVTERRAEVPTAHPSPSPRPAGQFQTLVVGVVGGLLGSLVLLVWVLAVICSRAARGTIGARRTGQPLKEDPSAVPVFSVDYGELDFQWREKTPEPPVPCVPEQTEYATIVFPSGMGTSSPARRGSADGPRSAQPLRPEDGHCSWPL

T1 sequence (Q15116 25-167 limits assumed): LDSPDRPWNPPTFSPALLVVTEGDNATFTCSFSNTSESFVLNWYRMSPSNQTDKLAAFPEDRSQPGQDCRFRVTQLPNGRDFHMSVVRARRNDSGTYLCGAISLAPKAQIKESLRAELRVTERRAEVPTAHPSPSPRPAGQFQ

B1: chimeric anti-PD-1 antibody 2G9 (IMMU-cPD-1) (antibody, V domains shown)
VH: VKLQESGGGLVKPGGSLKLSCAASGFAFSSNDMSWVRQTPEKRLEWVATISGGGINTYYPDSVKGRFTISRDNARNTLDLQMSSLRSEDTALYYCARRSNYAWFAYWGQGTPVTVSA
VL: not shown
[1]
  EC50: 0.043 nM
[2]
  EC50: 1.1 nM

B2: humanized anti-PD-1 antibody hPD-1-v5 (antibody, V domains shown)
VH: QVQLVESGGGLVKPGGSLRLSCAASGFAFSSNDMSWVRQAPGKGLEWVATISGGGINTYYPDSVKGRFTISRDNAKNTLYLQMNSLRAEDTAVYYCARRSNYAWFAYWGQGTPVTVSA
VL: DIQLTQSPASLAVSLGQRATISCRASESVDTYGISFMNWFQQKPGQPPKLLISPNQGSGVPARFSGSGSGTDFTLTINSLEAEDTAVYFCQQSKEVPWTFGGGTKLEIK
notes: also called version 5 (V5) antibody
[1]
  EC50: 0.148 nM
[2]
  EC50: 3.8 nM
